This note sets out measurements from US20260263609A1 (NEW YORK UNIVERSITY, published 2026).

Assay [1] deals with T1, NRAS (human, UniProt P01111 1-174, limits assumed).
T1 construct: also called Neuroblastoma-RAS; NRAS (WT)
The experiment in a line: BLI; biotinylated monobody on streptavidin tip, NRAS(WT)·GDP at 50, 25, 12.5 and 6.25 nM; global 1:1 fit. (In general: In BLI a coated tip is dipped into the sample, and binding shifts an interference pattern.)
Protocol: (§1) In these experiments a biotinylated monobody was immobilized on streptavidin coated BLI tip, and then binding of RAS proteins was measured.
(§2) These monobodies were produced as purified proteins and their binding characteristics against purified RAS proteins were analyzed using biolayer interferometry (BLI) (FIGS. 2A-2C).

Assay [2] addresses T1, NRAS. The experiment in a line: BLI; biotinylated monobody on streptavidin tip, NRAS(WT)·GTPγS at 50, 25, 12.5 and 6.25 nM; global 1:1 fit.
Protocol: as §1, §2
In assay [3] the target is T2, NRAS (K135R) (human, UniProt P01111 1-174, limits assumed).
T2 construct: also called NRAS mutant with the H/KRAS-mimicking mutation K135R
The assay is described as follows: BLI; sensorgrams at 100 nM and 25 nM with fit; nucleotide state not marked.

Assay [4] deals with T1, NRAS. The experiment in a line: BLI; biotinylated monobody on streptavidin tip, NRAS at 50, 25, 12.5 and 6.25 nM; global 1:1 fit; upper left panel, untitled on this sheet, NRAS(WT)·GDP by the layout of FIG. 2A.
Protocol: as §1, §2
Assay [5] deals with T1, NRAS. The experiment in a line: BLI; biotinylated monobody on streptavidin tip, NRAS at 50, 25, 12.5 and 6.25 nM; global 1:1 fit; upper right panel, untitled on this sheet, NRAS(WT)·GTPγS by the layout of FIG. 2A.
Protocol: as §1, §2
Assay [6] has as its target T1, NRAS. The assay is described as above. This is another data set of the same source.
Protocol: as §1, §2
The target of assay [7] is T1, NRAS. The experiment in a line: BLI; biotinylated monobody on streptavidin tip, NRAS at 50, 25, 12.5 and 6.25 nM; global 1:1 fit; upper left panel, untitled on this sheet, NRAS(WT)·GDP by the layout of FIG. 2A. This is another data set of the same source.
Protocol: as §1, §2

For orientation: Kd means the free concentration of one partner at which half of the binding sites on the other are occupied at equilibrium, for simple one-to-one binding.

B1: Mb(NRAS_19) (designed binder)
chain: VSSVPTKLEVVAATPTSLLISWDAPAVTVDFYVITYGETGSYYPYAQEFKVPGSKSTATISGLSPGVDYTITVYAYQVIGAIWKYYSPISINYRT
For B1, the results for the dissociation constant Kd in assay [1], in assay [2] and in assay [3] were 1.8 nM, 0.83 nM and 6.6 nM, respectively.

B2: Mb(NRAS_24) (designed binder)
chain: VSSVPTKLEVVAATPTSLLISWDAPAVTVDFYVITYGETGGYAWAYQEFKVPGSKSTATISGLSPGVDYTITVYAYQVIGAIWKYYSPISINYRT
With B2, the Kd was determined as 2.6 nM in assay [4], 5.6 nM in assay [3] and 0.52 nM in assay [5].

B3: Mb(NRAS_20) (designed binder)
chain: VSSVPTKLEVVAATPTSLLISWDAPAVTVDFYVITYGETGAYYPYAQEFKVPGSKSTATISGLSPGVDYTITVYAYQVIGAIWKYYSPISINYRT
Turning to B3, the equilibrium dissociation constant (Kd) in assay [6] worked out at 1.1 nM; in assay [7] it was 3.3 nM; in assay [3] it was 9.5 nM.
